First the molecules themselves.
B1: Azoarcus group I ribozyme (parent)
chain: GUGCCUUGCGCCGGGAAACCACGCAAGGGAUGGUGUCAAAUUCGGCGAAACCUAAGCGCCCGCCCGGGCGUAUGGCAACGCCGAGCCAAGCUUCGGCGCCUGCGCCGAUGAAGGUGUAGAGACUAGACGGCACCCACCUAAGGCAAACGCUAUGGUGAAGGCAUAGUCCAGGGAGUGGCGAAAGUCACACAAACCGG

This data set covers variants of B1. Briefly: reverse-splicing fitness (ratio to wild type); higher = more active; in vitro selection; Mg2+ level not given. In outline:
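An in vitro group I ribozyme library with randomized positions was T7-transcribed and gel-purified. In triplicate, 10 pmol RNA in EPPS pH 7.5 was reacted with 50 pmoles of a 30-nt RNA substrate for 1 h at 37 °C across several added MgCl2 levels (1–48 mM), then stopped with EDTA. Products were reverse transcribed from a substrate-complementary primer, PCR-amplified and sequenced (HiSeq 4000). Fitness is a variant's read proportion after selection over that before, normalised to wild type.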
With C82G A111C A120C A145U C150U, the reverse-splicing fitness worked out at 0.0335. Turning to C82G A111C A120C A145U C150G, the reverse-splicing fitness is 0.00916. Take C82G A111C A120C A145C C150U C169A U176G: the reverse-splicing fitness was determined as 0.00692.

In the case of C82G A111C A120C A145C C150U C169A U176A, the reverse-splicing fitness worked out at 0.0125. As for C82G A111C A120C A145C C150U C169A U176C, the reverse-splicing fitness worked out at 0.00824. For C82G A111C A120C C150U C169A U176G, the reverse-splicing fitness stood at 0.00909. C82G A111C A120C C150U C169A U176A: the reverse-splicing fitness was 0.0126. Take C82G A111C A120C C150U C169A U176C: the reverse-splicing fitness is 0.0129. On to C82G A111C A120C A145C C150G C169A, for which the reverse-splicing fitness is 0.00859. Take C82G A111C A120C A145C C150G C169U: the reverse-splicing fitness was determined as 0.00944. As to C82G A111C A120C A145C C150G C169G, the reverse-splicing fitness was determined as 0.00653. As for C82G A111C A120C A145U C150G C169A U176G, the reverse-splicing fitness came to 0.00726. Turning to C82G A111C A120C A145U C150G C169A U176A, the reverse-splicing fitness turned out to be 0.0121. Take C82G A111C A120C A145U C150G C169A U176C: the reverse-splicing fitness worked out at 0.0108. Regarding C82G A111C A120C C169U, the reverse-splicing fitness is 0.0148. For C82G A111C A120C C169G, the reverse-splicing fitness was 0.00886. For C82G A111C A120C C169A, the reverse-splicing fitness amounted to 0.00716. Take C82G A111C A120C A145U C150A C169U U176G: the reverse-splicing fitness amounted to 0.00817. Regarding C82G A111C A120C A145U C150A C169U U176C, the reverse-splicing fitness was 0.0133.

C82G A111C A120C A145U C150A C169U U176A: the reverse-splicing fitness amounted to 0.0126. Consider C82G A111C A120C A145C C150G C169A U176G, for which the reverse-splicing fitness came out at 0.00733. For the variant C82G A111C A120C A145C C150G C169A U176A, the reverse-splicing fitness was 0.00832.

Take C82G A111C A120C A145C C150G C169A U176C: the reverse-splicing fitness amounted to 0.00796. The result for C82G A111C A120G A145C C150U C169G U176G reads 0.00541; that for C82G A111C A120G A145C C150U C169G U176A, 0.0216.

As to C82G A111C A120G A145C C150U C169G U176C, the reverse-splicing fitness was 0.0133. C82G A111C A120C A145U C150G U176A: the reverse-splicing fitness stood at 0.00549. The result for C82G A111C A120C A145U C150G U176C reads 0.0099; that for C82G A111C A120C A145U C150G U176G, 0.00383. Regarding C82G A111C A120G A145C C150U C169G, the reverse-splicing fitness was 0.00885. As to C82G A111C A120G A145C C150U C169U, the reverse-splicing fitness was determined as 0.00687. As for C82G A111C A120G A145C C150U C169A, the reverse-splicing fitness amounted to 0.00816. Under C82G A111C A120C C150A C169U U176A stands 0.015; under C82G A111C A120C C150A C169U U176G, 0.0085. C82G A111C A120C C150A C169U U176C: the reverse-splicing fitness was 0.0153. Regarding C82G A111C A120C A145C C150A C169U U176C, the reverse-splicing fitness came to 0.0123. In the case of C82G A111C A120C A145C C150A C169U U176G, the reverse-splicing fitness came to 0.00799.

Turning to C82G A111C A120C A145C C150A C169U U176A, the reverse-splicing fitness came out at 0.0176. For C82G A111C A120C A145U C150G C169U U176C, the reverse-splicing fitness is 0.0121. As to C82G A111C A120C A145U C150G C169U U176A, the reverse-splicing fitness came out at 0.00736. As for C82G A111C A120C A145U C150G C169U U176G, the reverse-splicing fitness stood at 0.0068. For C82A C150U U176A, the reverse-splicing fitness is 0.24.

For C82A C150U U176C, the reverse-splicing fitness was found to be 0.253. In the case of C82A C150U U176G, the reverse-splicing fitness amounted to 0.069. As for C82G A111C A120C A145G U176A, the reverse-splicing fitness was 0.0172. With C82G A111C A120C A145G U176G, the reverse-splicing fitness turned out to be 0.00761.

As to C82G A111C A120C A145G U176C, the reverse-splicing fitness amounted to 0.0314. In the case of C82G A111C A120C C150U C169U, the reverse-splicing fitness was found to be 0.0139. Turning to C82G A111C A120C C150U C169A, the reverse-splicing fitness stood at 0.0099. The result for C82G A111C A120C C150U C169G reads 0.00825. Under C82G A111C A120C C150G C169A stands 0.00742; under C82G A111C A120C C150G C169G, 0.00702; under C82G A111C A120C C150G C169U, 0.00996. For the variant C82G A111C A120C A145C C150G C169G U176C, the reverse-splicing fitness is 0.00983. Under C82G A111C A120C A145C C150G C169G U176A stands 0.00984; under C82G A111C A120C A145C C150G C169G U176G, 0.00608; under C82A C150U C169U U176C, 0.016. The result for C82A C150U C169U U176G reads 0.00577. As to C82A C150U C169U U176A, the reverse-splicing fitness stood at 0.0141. For C82G A111C A120C C150G C169G U176C, the reverse-splicing fitness was 0.00766. Take C82G A111C A120C C150G C169G U176A: the reverse-splicing fitness amounted to 0.00891. With C82G A111C A120C C150G C169G U176G, the reverse-splicing fitness was determined as 0.00663. Take C82G A111C A120C C150A C169A U176A: the reverse-splicing fitness worked out at 0.0164.

Consider C82G A111C A120C C150A C169A U176G, for which the reverse-splicing fitness was found to be 0.00868. Regarding C82G A111C A120C C150A C169A U176C, the reverse-splicing fitness was found to be 0.019. On to C82G A111C A120C A145C C150U U176A, for which the reverse-splicing fitness worked out at 0.0114. Under C82G A111C A120C A145C C150U U176G stands 0.00681; under C82G A111C A120C A145C C150U U176C, 0.0129; under C82G A111C A120G A145C C150U, 0.00925. Consider C82G A111C A120G A145C C150A, for which the reverse-splicing fitness stood at 0.00698. Take C82G A111C A120G A145C C150G: the reverse-splicing fitness amounted to 0.00634. As to C82G A111C A120C A145G C150G C169U U176C, the reverse-splicing fitness was determined as 0.0117.

For the variant C82G A111C A120C A145G C150G C169U U176G, the reverse-splicing fitness was determined as 0.0072.

As for C82G A111C A120C A145G C150G C169U U176A, the reverse-splicing fitness was found to be 0.0116.

As for C82G, the reverse-splicing fitness was 0.499. Consider C82G A111C A120C A145G C150A U176A, for which the reverse-splicing fitness was 0.0118.

In the case of C82G A111C A120C A145G C150A U176C, the reverse-splicing fitness worked out at 0.0234.

As to C82G A111C A120C A145G C150A U176G, the reverse-splicing fitness is 0.00711. For C82A C169U U176G, the reverse-splicing fitness is 0.00459. Take C82A C169U U176C: the reverse-splicing fitness came out at 0.0153. For C82A C169U U176A, the reverse-splicing fitness was 0.0166. Under C82A C150U C169A U176A stands 0.0169; under C82A C150U C169A U176G, 0.00593. On to C82A C150U C169A U176C, for which the reverse-splicing fitness is 0.0144.

Source of the values: the RNAGym collection of RNA variant scans (doi:10.1093/molbev/msab373).
